# Laboratory results: patent US20160176932A1 (Janssen / Centocor, published 2016)
# T1: B1_N67I, S215P (RSV B1, UniProt O36634 27-109; O36634 137-540)
# T1 construct: also called PreF N67I S215P, RSV B1, fibritin
# T1 chain 1: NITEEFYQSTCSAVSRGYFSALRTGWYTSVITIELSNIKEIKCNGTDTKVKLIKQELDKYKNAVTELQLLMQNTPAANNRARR
# T1 chain 2: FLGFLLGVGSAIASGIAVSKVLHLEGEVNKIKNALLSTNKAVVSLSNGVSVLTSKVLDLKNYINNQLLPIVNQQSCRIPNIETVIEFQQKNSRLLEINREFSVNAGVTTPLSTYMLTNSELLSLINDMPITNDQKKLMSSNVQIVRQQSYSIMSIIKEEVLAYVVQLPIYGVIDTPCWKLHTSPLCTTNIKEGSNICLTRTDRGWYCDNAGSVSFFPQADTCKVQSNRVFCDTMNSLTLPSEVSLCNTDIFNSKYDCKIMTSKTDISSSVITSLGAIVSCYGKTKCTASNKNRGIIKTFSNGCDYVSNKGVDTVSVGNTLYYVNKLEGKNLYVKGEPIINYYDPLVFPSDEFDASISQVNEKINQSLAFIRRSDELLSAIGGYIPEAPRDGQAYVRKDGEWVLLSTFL
# T2: B1_N67I, S215P loop (RSV B1, UniProt O36634 26-540)
# T2 construct: Whole entry named; it begins with the signal peptide 1-26; also called PreFL N67I S215P, RSV B1, fibritin, Loop; F24-N67I + S215P: RSV B1, linker stabilized, fibritin
# T2 chain: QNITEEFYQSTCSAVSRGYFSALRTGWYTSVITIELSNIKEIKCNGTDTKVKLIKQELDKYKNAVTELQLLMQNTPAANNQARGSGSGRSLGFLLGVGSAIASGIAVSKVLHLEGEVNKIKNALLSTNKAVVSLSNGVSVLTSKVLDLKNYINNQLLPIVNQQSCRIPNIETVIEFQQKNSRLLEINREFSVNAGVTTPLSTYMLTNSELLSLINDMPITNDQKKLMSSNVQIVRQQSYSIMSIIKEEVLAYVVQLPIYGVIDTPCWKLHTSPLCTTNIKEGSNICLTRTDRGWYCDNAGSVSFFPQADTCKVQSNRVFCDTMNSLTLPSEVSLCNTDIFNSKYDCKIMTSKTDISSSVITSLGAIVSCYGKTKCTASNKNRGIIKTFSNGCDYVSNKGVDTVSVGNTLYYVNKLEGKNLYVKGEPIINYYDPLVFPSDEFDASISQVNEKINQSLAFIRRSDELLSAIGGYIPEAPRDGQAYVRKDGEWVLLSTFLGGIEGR
# B1: CR9501 (antibody, V domains shown)
# VH: QVQLVQSGPGLVKPSQTLALTCNVSGASINSDNYYWTWIRQRPGGGLEWIGHISYTGNTYYTPSLKSRLSMSLETSQSQFSLRLTSVTAADSAVYFCAACGAYVLISNCGWFDSWGQGTQVTVSS
# VL: EIVMTQSPSSLSASIGDRVTITCQASQDISTYLNWYQQKPGQAPRLLIYGASNLETGVPSRFTGSGYGTDFSVTISSLQPEDIATYYCQQYQYLPYTFAPGTKVEIK
# notes: Monoclonal antibody with the variable regions of 58C5; Biotinylated and immobilised on streptavidin sensors in the Octet assays; also called pre-fusion-specific Mab CR9501
# How the values were obtained:
# A2_F24 VI56IV (RSV A2) = A2_F24 VI56IV (RSV A2) (UniProt P03420); experiment: Octet endpoint assay, CR9501 on sensor, culture supernatant
# B1_N67I, S215P = target: T1, B1_N67I, S215P; experiment: Quantitative Octet, CR9501 on sensor, culture supernatant
# Description: (§1) To measure concentration of the pre-fusion RSV F protein in cell culture supernatants, quantitative Octet-based method was used. […] Afterwards, the coated biosensors were blocked in mock cell culture supernatant. Quantitative experiment was performed as follows: temperature 30° C., shaking speed 1000 rpm, time of the assay 300 seconds. Concentration of the protein in the cell culture supernatant was calculated using standard curve. The standard curve was prepared for each coated antibody using the A2_F24 N67I+S215P (SEQ NO:21) protein, diluted in mock cell culture supernatant. The measurement was done on the day of supernatant harvest (day 1) and after storage of the supernatant at 4° C. for 5 days or longer. […] The data analysis was done using the FORTEBIO® Data Analysis 6.4 software (FORTEBIO®).
# B1_N67I, S215P loop = target: T2, B1_N67I, S215P loop; experiment: as above
# Description: as §1
Molecule,% of CR9501 binding after 5 days at 4 C relative to day 1 (A2_F24 VI56IV (RSV A2)),"% protein concentration (CR9501) after 5 days at 4 C relative to day of harvest (B1_N67I, S215P)","% protein concentration (CR9501) after 5 days at 4 C relative to day of harvest (B1_N67I, S215P loop)"
CR9501 (antibody),54%,–,–
B1,–,90.9%,108%
